Our source for the Kd values is publication PMC10977726 (2024).

T1: rabbit serum albumin (rabbit, UniProt P49065 25-608, biotin)
T1 chain: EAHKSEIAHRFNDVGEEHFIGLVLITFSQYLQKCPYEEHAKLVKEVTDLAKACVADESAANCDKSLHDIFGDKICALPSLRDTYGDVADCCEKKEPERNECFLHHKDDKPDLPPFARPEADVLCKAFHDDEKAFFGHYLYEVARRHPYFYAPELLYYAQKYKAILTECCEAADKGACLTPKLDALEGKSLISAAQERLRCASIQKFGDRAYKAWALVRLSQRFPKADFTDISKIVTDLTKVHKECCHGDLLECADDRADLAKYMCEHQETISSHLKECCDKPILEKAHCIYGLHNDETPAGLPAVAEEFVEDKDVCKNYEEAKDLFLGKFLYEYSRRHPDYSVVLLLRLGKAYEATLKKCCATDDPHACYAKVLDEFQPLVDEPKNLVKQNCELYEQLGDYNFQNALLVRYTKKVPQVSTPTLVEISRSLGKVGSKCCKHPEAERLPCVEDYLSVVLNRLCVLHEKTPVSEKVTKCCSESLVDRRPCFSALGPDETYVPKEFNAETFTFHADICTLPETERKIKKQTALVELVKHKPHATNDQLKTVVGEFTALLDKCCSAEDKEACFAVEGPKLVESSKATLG

B1: mouse IgG Fc (domain or fragment)
chain: VPRDCGCKPCICTVPEVSSVFIFPPKPKDVLTITLTPKVTCVVVDISKDDPEVQFSWFVDDVEVHTAQTQPREEQFNSTFRSVSELPIMHQDWLNGKEFKCRVNSAAFPAPIEKTISKTKGRPKAPQVYTIPPPKEQMAKDKVSLTCMITDFFPEDITVEWQWNGQPAENYKNTQPIMNTNGSYFVYSKLNVQKSNWEAGNTFTCSVLHEGLHNHHTEKSLSHSPGK
modifications: biotin
B2: rat serum albumin (natural protein)
chain: EAHKSEIAHRFKDLGEQHFKGLVLIAFSQYLQKCPYEEHIKLVQEVTDFAKTCVADENAENCDKSIHTLFGDKLCAIPKLRDNYGELADCCAKQEPERNECFLQHKDDNPNLPPFQRPEAEAMCTSFQENPTSFLGHYLHEVARRHPYFYAPELLYYAEKYNEVLTQCCTESDKAACLTPKLDAVKEKALVAAVRQRMKCSSMQRFGERAFKAWAVARMSQRFPNAEFAEITKLATDVTKINKECCHGDLLECADDRAELAKYMCENQATISSKLQACCDKPVLQKSQCLAEIEHDNIPADLPSIAADFVEDKEVCKNYAEAKDVFLGTFLYEYSRRHPDYSVSLLLRLAKKYEATLEKCCAEGDPPACYGTVLAEFQPLVEEPKNLVKTNCELYEKLGEYGFQNAVLVRYTQKAPQVSTPTLVEAARNLGRVGTKCCTLPEAQRLPCVEDYLSAILNRLCVLHEKTPVSEKVTKCCSGSLVERRPCFSALTVDETYVPKEFKAETFTFHSDICTLPDKEKQIKKQTALAELVKHKPKATEDQLKTVMGDFAQFVDKCCKAADKDNCFATEGPNLVARSKEALA
modifications: biotin
B3: rabbit IgG Fc (domain or fragment)
chain: PSTCSKPTCPPPELLGGPSVFIFPPKPKDTLMISRTPEVTCVVVDVSQDDPEVQFTWYINNEQVRTARPPLREQQFNSTIRVVSTLPITHQDWLRGKEFKCKVHNKALPAPIEKTISKARGQPLEPKVYTMGPPREELSSRSVSLTCMINGFYPSDISVEWEKNGKAEDNYKTTPAVLDSDGSYFLYNKLSVPTSEWQRGDVFTCSVMHEALHNHYTQKSISRSPGK
modifications: biotin

Some targets named below: protein A (UniProt P38507 37-477); Ig-CON-5 (synthetic); mouse serum albumin (mouse, UniProt P07724 25-608, biotin); human serum albumin (human, UniProt P02768 25-609, biotin); Hs-CHR-3 (synthetic).
Assay in all cases: SPR
In general terms: Surface plasmon resonance follows binding to a sensor surface in real time, without labels.

The target in the assay “mouse IgG Fc” is B1.
For the assay “rabbit IgG Fc”, the target named is B3.
A further assay deals with T1, rabbit serum albumin.
In the assay “rat serum albumin” the target is B2.

mouse serum albumin, sequence (P07724 25-608): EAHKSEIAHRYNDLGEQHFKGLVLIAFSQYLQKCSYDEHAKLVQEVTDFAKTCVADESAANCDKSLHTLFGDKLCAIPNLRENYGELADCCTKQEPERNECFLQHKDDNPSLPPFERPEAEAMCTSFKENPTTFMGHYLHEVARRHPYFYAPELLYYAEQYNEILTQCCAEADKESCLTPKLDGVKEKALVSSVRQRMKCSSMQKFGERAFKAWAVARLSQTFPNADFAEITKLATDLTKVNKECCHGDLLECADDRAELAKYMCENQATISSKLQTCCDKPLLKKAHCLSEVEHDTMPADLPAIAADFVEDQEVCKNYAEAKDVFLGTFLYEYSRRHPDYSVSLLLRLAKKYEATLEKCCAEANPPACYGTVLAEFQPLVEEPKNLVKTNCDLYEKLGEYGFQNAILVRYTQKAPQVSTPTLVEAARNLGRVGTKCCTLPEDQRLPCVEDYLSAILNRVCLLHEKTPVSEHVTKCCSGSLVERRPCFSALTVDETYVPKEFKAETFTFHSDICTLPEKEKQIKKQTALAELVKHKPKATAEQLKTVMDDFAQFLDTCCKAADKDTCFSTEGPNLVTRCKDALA

What is called Kd is the free concentration of one partner at which half of the binding sites on the other are occupied at equilibrium, for simple one-to-one binding. A high value points to lower affinity. For B1, the Kd in the assay with protein A is 1.5 nM; with Ig-CON-5 (synthetic), around 1200 nM.
On to VGECVRGRCSKISCCSQFGYCGKGPKYCG [Ig-AMP-1 (synthetic)], for which the results for the Kd with mouse IgG Fc and with rabbit IgG Fc were above 20000 nM and around 1410 nM, respectively.
Turning to VGECVRGRCSQISCCSQFGYCGKGPKYCG [Ig-AMP-3 (synthetic)], in the assay with rabbit IgG Fc, the Kd is around 1850 nM.
Consider RLIEDICLPRWGCLWEDD [SA21], for which the Kd is 100 nM with rabbit serum albumin, 160 nM with mouse serum albumin, 650 nM with human serum albumin and 190 nM with rat serum albumin.
B2 yielded a Kd in the assay with Hs-CHR-3 (synthetic) of 2000 nM.
As for B3, the results for the Kd with protein A and in the assay with Ig-CON-5 (synthetic) were 0.167 nM and above 30 nM, respectively.
For GCQAHYWYRVWFCKQDSDCLAGCVCGPNGFCG [Ig-EET-1 (synthetic)], the equilibrium dissociation constant (Kd) in the assay with mouse IgG Fc and with rabbit IgG Fc was above 20000 nM each time.
